Measurements taken from patent publication US20110111461A1 (Hoffmann-La Roche, published 2011).

Legend:
[1] = target: T1, human epidermal growth factor receptor (EGFR) (human, UniProt P00533 25-1210); assay: flow cytometry on A431 cells; light chain variants paired with I-HHD
T1 construct: whole, on cells; also called HER-1; ErbB1
Protocol: (§1) The purified, monomeric humanized antibody variants were tested for binding to human epidermal growth factor receptor (EGFR, also referred to in the literature as HER-1 or ErbB1) on the A431 human epidermal cell line, using a flow cytometry-based assay. 200,000 cells (e.g., from human A431 cell line) in 180 μl FACS buffer (PBS containing 2% FCS and 5 mM EDTA) were transferred to 5 ml polystyrene tubes and 20 μl 10 fold concentrated anti-EGFR antibody (primary antibody) samples (1-5000 ng/ml final concentration) or PBS only were added. After gently mixing the samples, the tubes were incubated at 4° C. for 30 min in the dark. Subsequently, samples were washed twice with FACS buffer and pelleted at 300×g for 3 min. Supernatant was aspirated off and cells were taken up in 50 μl FACS buffer and 2 μl secondary antibody (anti-Fc-specific F(ab′)2-FITC fragments (Jackson Immuno Research Laboratories, USA)) was added and the tubes were incubated at 4° C. for 30 min. Samples were washed twice with FACS buffer and taken up in 500 μl of FACS buffer for analysis by Flow Cytometry. Binding was determined by plotting the geometric mean fluorescence against the antibody concentrations.
Each of the I-KC variant constructs (I-KCl to I-KC9) was paired with a heavy chain variable region comprising construct I-HHD (SEQ ID NO:16 and SEQ ID NO:15) and a binding assay performed according to the methods described in the previous examples. Constructs I-KCl to I-KC9 were compared to the I-KC construct (SEQ ID NO:46 and SEQ ID NO:45) for binding affinity to EGFR in A431 target cells (FIG. 29). […] Therefore, when paired with a chimeric (e.g., humanized) heavy chain construct specific for EGFR, the light chain can be entirely human (e.g., from a human light chain V gene sequence) and still retain specific binding for EGFR. In particular, CDR2 and CDR3 can be entirely in human germline form.

[2] = target: T1, human epidermal growth factor receptor …; assay: flow cytometry on A431 cells; chain swap with ch-ICR62 (FIG. 1)
Protocol: as §1
Only the I-HHA has strongly diminished binding activity (see FIG. 2). […]

[3] = target: T1, human epidermal growth factor receptor …; assay: flow cytometry on A431 cells (FIG. 4)
Protocol: as §1
FIGS. 4 and 5 compare the constructs of the series I-HLA1, I-HLA2, I-HLA3, I-HLA4, I-HLA5, and I-HLA6. […]

[4] = target: T1, human epidermal growth factor receptor …; assay: flow cytometry on A431 cells
Protocol: as §1
Only the I-HHA has strongly diminished binding activity (see FIG. 2). […] In this experiment, either the light chain, the heavy chain or both chains simultaneously of the ch-ICR62 were replaced by the above mentioned humanized constructs.

B1: humanized ICR62 antibody I-HHD / I-KC3 (antibody, human IgG1, V domains shown)
VH: QVQLVQSGAEVKKPGSSVKVSCKASGFTFTDYKIHWVRQAPGQGLEWMGYFNPNSGYSTYAQKFQGRVTITADKSTSTAYMELSSLRSEDTAVYYCARLSPGGYYVMDAWGQGTTVTVSS
VL: DIQMTQSPSSLSASVGDRVTITCRASQGINNYLGWYQQKPGKAPKRLIYNTNNLQTGVPSRFSGSGSGTEFTLTISSLQPEDFATYYCLQHNSFPTFGQGTKLEIKR
EC50 fold increase relative to the I-KC construct [1]: 10 fold

B2: chimeric ICR62 heavy chain (rVH) combined with the I-KB light chain (antibody, human IgG1, V domains shown)
VH: QVNLLQSGAALVKPGASVKLSCKGSGFTFTDYKIHWVKQSHGKSLEWIGYFNPNSGYSTYNEKFKSKATLTADKSTDTAYMELTSLTSEDSATYYCTRLSPGGYYVMDAWGQGASVTVSS
VL: DIQMTQSPSSLSASVGDRVTITCKASQNINNYLNWYQQKPGKAPKRLIYNTNNLQTGVPSRFSGSGSGTEYTLTISSLQPEDFATYYCLQHNSFPTFGQGTKLEIKR
notes: also called rVH / I-KB
binding result [2]: binds

B3: humanized ICR62 antibody I-HHD / I-KC8 (antibody, human IgG1, V domains shown)
VH: QVQLVQSGAEVKKPGSSVKVSCKASGFTFTDYKIHWVRQAPGQGLEWMGYFNPNSGYSTYAQKFQGRVTITADKSTSTAYMELSSLRSEDTAVYYCARLSPGGYYVMDAWGQGTTVTVSS
VL: DIQMTQSPSSLSASVGDRVTITCRASQGINNYLNWYQQKPGKAPKRLIYNTNNLQSGVPSRFSGSGSGTEFTLTISSLQPEDFATYYCLQHNSFPTFGQGTKLEIKR
binding result [1]: binds

B4: humanized ICR62 antibody I-HHD / I-KC5 (antibody, human IgG1, V domains shown)
VH: QVQLVQSGAEVKKPGSSVKVSCKASGFTFTDYKIHWVRQAPGQGLEWMGYFNPNSGYSTYAQKFQGRVTITADKSTSTAYMELSSLRSEDTAVYYCARLSPGGYYVMDAWGQGTTVTVSS
VL: DIQMTQSPSSLSASVGDRVTITCRASQGINNYLNWYQQKPGKAPKRLIYNANNLQTGVPSRFSGSGSGTEFTLTISSLQPEDFATYYCLQHNSFPTFGQGTKLEIKR
binding result [1]: binds

B5: humanized ICR62 antibody I-HHD / I-KC7 (antibody, human IgG1, V domains shown)
VH: QVQLVQSGAEVKKPGSSVKVSCKASGFTFTDYKIHWVRQAPGQGLEWMGYFNPNSGYSTYAQKFQGRVTITADKSTSTAYMELSSLRSEDTAVYYCARLSPGGYYVMDAWGQGTTVTVSS
VL: DIQMTQSPSSLSASVGDRVTITCRASQGINNYLNWYQQKPGKAPKRLIYNTNSLQTGVPSRFSGSGSGTEFTLTISSLQPEDFATYYCLQHNSFPTFGQGTKLEIKR
binding result [1]: binds

B6: humanized ICR62 antibody I-HHD / I-KC9 (antibody, human IgG1, V domains shown)
VH: QVQLVQSGAEVKKPGSSVKVSCKASGFTFTDYKIHWVRQAPGQGLEWMGYFNPNSGYSTYAQKFQGRVTITADKSTSTAYMELSSLRSEDTAVYYCARLSPGGYYVMDAWGQGTTVTVSS
VL: DIQMTQSPSSLSASVGDRVTITCRASQGINNYLNWYQQKPGKAPKRLIYNTNNLQTGVPSRFSGSGSGTEFTLTISSLQPEDFATYYCLQHNSYPTFGQGTKLEIKR
binding result [1]: binds

B7: humanized ICR62 antibody I-HHD / I-KC6 (antibody, human IgG1, V domains shown)
VH: QVQLVQSGAEVKKPGSSVKVSCKASGFTFTDYKIHWVRQAPGQGLEWMGYFNPNSGYSTYAQKFQGRVTITADKSTSTAYMELSSLRSEDTAVYYCARLSPGGYYVMDAWGQGTTVTVSS
VL: DIQMTQSPSSLSASVGDRVTITCRASQGINNYLNWYQQKPGKAPKRLIYNTSNLQTGVPSRFSGSGSGTEFTLTISSLQPEDFATYYCLQHNSFPTFGQGTKLEIKR
binding result [1]: binds

B8: humanized ICR62 antibody I-HHD / I-KC4 (antibody, human IgG1, V domains shown)
VH: QVQLVQSGAEVKKPGSSVKVSCKASGFTFTDYKIHWVRQAPGQGLEWMGYFNPNSGYSTYAQKFQGRVTITADKSTSTAYMELSSLRSEDTAVYYCARLSPGGYYVMDAWGQGTTVTVSS
VL: DIQMTQSPSSLSASVGDRVTITCRASQGINNYLNWYQQKPGKAPKRLIYTTNNLQTGVPSRFSGSGSGTEFTLTISSLQPEDFATYYCLQHNSFPTFGQGTKLEIKR
binding result [1]: binds

B9: chimeric rat-human ICR62 antibody (antibody, V domains shown)
VH: QVNLLQSGAALVKPGASVKLSCKGSGFTFTDYKIHWVKQSHGKSLEWIGYFNPNSGYSTYNEKFKSKATLTADKSTDTAYMELTSLTSEDSATYYCTRLSPGGYYVMDAWGQGASVTVSS
VL: DIQMTQSPSFLSASVGDRVTINCKASQNINNYLNWYQQKLGEAPKRLIYNTNNLQTGIPSRFSGSGSGTDYTLTISSLQPEDFATYFCLQHNSFPTFGAGTKLELKR
notes: also called ch-ICR62; chimeric ICR62
EC50 fold lower relative to I-HLA4 [3]: 2 fold
EC50 [4]: ~0.3 µg/mL
